Literature values as cited in US20250304973.

Biological target: alpha-thrombin (native) (Homo sapiens) (UniProt P00734+P00734)
Details: CITED; linker not given

In the case of HD1-22 bivalent (HD1 linked to HD22), the Kd is listed as 0.65 nM.
